For this experiment, the target named is GST-HP1α (full-length human heterochromatin protein 1 α with N-terminal GST) (human) (UniProt P45973). As to the kind of experiment: pull-down; GST-HP1 anchored on GSH-Sepharose (80 pmol), 1.2 μg native oligo-nucleosomes from HeLa; absence of MgCl2; 50 mM NaCl, 20 mM Tris-HCl pH 7.4, room temperature 30 min; H3K9me3 and H4 detected by western blot. On the technique in general: Immunoblotting shows a protein as a band on a membrane.
Sequence of UniProt P45973 (P45973 whole entry): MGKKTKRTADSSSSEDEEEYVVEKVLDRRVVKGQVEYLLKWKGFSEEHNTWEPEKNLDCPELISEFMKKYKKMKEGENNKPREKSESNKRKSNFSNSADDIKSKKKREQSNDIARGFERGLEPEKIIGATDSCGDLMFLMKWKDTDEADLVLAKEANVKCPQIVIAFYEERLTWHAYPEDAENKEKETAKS

Regarding “native oligo-nucleosomes prepared from HeLa cell nuclei (H3K9me3-nucleosomes detected) (complex)”, the percent of input bound is 18 % of input.

Values taken from paper PMC4666388.
